The record followed here is the RNAGym collection of RNA variant scans (doi:10.1073/pnas.2313332121).

The chains are these.
B1: TPR t1 (parent)
chain: GACCAAUCUGCCCUCAGAGCUCGAGAACAUCUUCGGAUGCAGAGGAGGCAGGCUUCGGUGGCGCGAUAGCGCCAACGUCCUCAACCUCCAAUGCAUCCCACCACAUGAUGAUGCCUGAAGAGCCUUGGUUUUUUG

In this data set the parent is B1. The data set is described as follows: polymerase ribozyme fitness, log enrichment relative to wild type (log ratio); higher = more active; in vitro selection for triplet polymerase activity. A digest of the protocol:
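To select mutant libraries of each subunit of a heterodimeric triplet polymerase ribozyme, built by PCR and transcribed, each was annealed with a biotinylated primer, partner subunit and triplets, then incubated frozen at −7 °C. Extended constructs were gel-excised, captured on streptavidin beads and amplified by RT-PCR, in one round carried out in triplicate. Illumina sequencing of input and output libraries kept genotypes with ≥10 input reads and ≥1 read per output. Fitness is the base-2 logarithm of genotype enrichment relative to wild-type enrichment, from inverse-variance-weighted replicate averages.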
For the variant A2G C11A G71U A90U U130A U133G, the “polymerase ribozyme fitness (log ratio)” value was -2.92.
Turning to A2U A41G U55A C72A, the “polymerase ribozyme fitness (log ratio)” value was -2.61.
The figure for A2G A41U G120U is -1.2.
Take A2C U54A C72G C104U G113A: the “polymerase ribozyme fitness (log ratio)” value was -2.82.
For the variant A2C U14G A37C C49G G60C U96A A111U, the “polymerase ribozyme fitness (log ratio)” value is -6.59.
Next, A2G U7C U9C G51U: -2.87; A2C C98U: -3.19.
For A2C G120C, the “polymerase ribozyme fitness (log ratio)” value is -0.618.
Next, A2C G120U: -0.948.
For A2G G135U, the “polymerase ribozyme fitness (log ratio)” value was -0.44.
On to A2C G69A C101U C104U G113A G127C U129C, for which the “polymerase ribozyme fitness (log ratio)” value is -5.09.
For A2G C12A, the “polymerase ribozyme fitness (log ratio)” value is -0.474.
Turning to A2C U130A, the “polymerase ribozyme fitness (log ratio)” value was -2.07.
For the variant A2U C76U, the “polymerase ribozyme fitness (log ratio)” value is -1.64.
Next, A2C G47A G93U: -5.29; A2G U14G C70A C101G G120U G127C: -3.71.
The figure for A2G G45U is -1.83.
Next, A2C C4U G10A G57C G61U: -2.37.
Turning to A2U G52A C56A C82A A91G A121C, the “polymerase ribozyme fitness (log ratio)” value is -2.84.
The figure for A2C C4U G36U C104U is -2.28; for A2U C11U it is -2.95.
For A2G C13U C53G C72G, the “polymerase ribozyme fitness (log ratio)” value is -0.413.
Next, A2C U59A G122A: -2.15; A2G C13G A37U C49A C53A A100G C114A C124A: -7.24.
Next, A2G C3A G39U U59A A105C U106A C123G: -2.32.
With A2U A18U A29U A41U G60A, the “polymerase ribozyme fitness (log ratio)” value is -5.23.
For A2C C13U G77A C123U, the “polymerase ribozyme fitness (log ratio)” value stood at 0.26.
Next, A2C U21G C72A G77U: -4.23; A2U C101U: -1.78; A2G C13U G69C: -0.807.
A2C C76U U126A: the “polymerase ribozyme fitness (log ratio)” value was -1.99.
Next, A2U C64U C124U: -1.49.
In the case of A2U G52U C53A G63U U132C, the “polymerase ribozyme fitness (log ratio)” value is -2.74.
Turning to A2G A41C G42A C82G C89A U92G G120U, the “polymerase ribozyme fitness (log ratio)” value is -5.77.
Take A2U C15A C114U: the “polymerase ribozyme fitness (log ratio)” value was -6.05.
Next, A2C U7C G113U G120C: -4.07.
The figure for A2C C8G G48U G71A C101U is -2.14; for A2G C15G it is -3.2.
In the case of A2G C89G G110U, the “polymerase ribozyme fitness (log ratio)” value was -4.03.
The figure for A2G G35U C124A is -4.09; for A2U A50U C72G it is -4.02; for A2U A50U A95C C124A U125A it is -2.49.
Next, A2U C13U: -1.36; A2U U9A C11U A18C C20A C31G G77A A83G C97A G113U C124U: -7.17.
The figure for A2U A5U C8A C79G C115G is -5.43; for A2U A6U G57U G120C it is -4.53; for A2G U32C C40G C49A A68G C73U it is -5.24.
As to A2C A37U G48A U54A C73A C79G A119U G128U, the “polymerase ribozyme fitness (log ratio)” value is -5.61.
Next, A2C C86U: -1.99; A2U G10U G45A G48A C102U C114U G120C C123U: -4.53; A2U U59C: -2.87.
As for A2U G42C C72A, the “polymerase ribozyme fitness (log ratio)” value is -3.5.
Regarding A2C C4A A5C U125G, the “polymerase ribozyme fitness (log ratio)” value was -0.48.
The figure for A2G C88A A100U C115U is -3.59.
Next, A2U A37U G42C G93C G120A C123G U130A: -6.65; A2U C49A G71A C82A G120U: -3.9.
Next, A2U G61U G113C C114U: -3.06.
Consider A2U C88A A121U, for which the “polymerase ribozyme fitness (log ratio)” value is -0.332.
Take A2U C12U: the “polymerase ribozyme fitness (log ratio)” value is -2.36.
The figure for A2G C34A A46G C73A is -2.49; for A2G G117A it is -1.6.
The figure for A2U U106A is -1.89; for A2G C8A G63A G110A it is -3.11; for A2C C13A it is -2.71.
For A2U G110C U131A, the “polymerase ribozyme fitness (log ratio)” value was -5.15.
Take A2U A27G G39C G61C C62U A84U: the “polymerase ribozyme fitness (log ratio)” value is -7.51.
Next, A2U G60U: -1.99; A2U A6U G120A: 0.00399.
The figure for A2C G69A is -3.57; for A2U G127C it is -2.05; for A2G G69A it is -2.65.
Next, A2U A5G A18U A43C C56U C85A U126C U129A: -3.94; A2G C22G A26G A84U G122A U130C: -5.4.
As for A2G G61C C88U C124A, the “polymerase ribozyme fitness (log ratio)” value is -0.51.
For A2C G17A G44C G45A C86U U109A U131C, the “polymerase ribozyme fitness (log ratio)” value is -7.35.
For A2G C86G U126C, the “polymerase ribozyme fitness (log ratio)” value is -2.8.
Next, A2G C13A A43U G51U C64U A83U A84G: -6.26; A2G G120A U129C G135U: -1.81; A2U G45A G69U C124A: -0.409.
Next, A2U U38G C70U C98U G128U: -6.66.
On to A2G G120C, for which the “polymerase ribozyme fitness (log ratio)” value worked out at 1.19.
Next, A2U C70U G128C: -2.25.
For A2U U9A C11G A24U G36U C56G C123G, the “polymerase ribozyme fitness (log ratio)” value was -7.43.
